Consider two molecules from PMC6742479 (Molecular cell, 2015).

The target of this assay is T1, GST-scKap104 (S. cerevisiae, UniProt P38217 1-918).
T1 sequence (looked up): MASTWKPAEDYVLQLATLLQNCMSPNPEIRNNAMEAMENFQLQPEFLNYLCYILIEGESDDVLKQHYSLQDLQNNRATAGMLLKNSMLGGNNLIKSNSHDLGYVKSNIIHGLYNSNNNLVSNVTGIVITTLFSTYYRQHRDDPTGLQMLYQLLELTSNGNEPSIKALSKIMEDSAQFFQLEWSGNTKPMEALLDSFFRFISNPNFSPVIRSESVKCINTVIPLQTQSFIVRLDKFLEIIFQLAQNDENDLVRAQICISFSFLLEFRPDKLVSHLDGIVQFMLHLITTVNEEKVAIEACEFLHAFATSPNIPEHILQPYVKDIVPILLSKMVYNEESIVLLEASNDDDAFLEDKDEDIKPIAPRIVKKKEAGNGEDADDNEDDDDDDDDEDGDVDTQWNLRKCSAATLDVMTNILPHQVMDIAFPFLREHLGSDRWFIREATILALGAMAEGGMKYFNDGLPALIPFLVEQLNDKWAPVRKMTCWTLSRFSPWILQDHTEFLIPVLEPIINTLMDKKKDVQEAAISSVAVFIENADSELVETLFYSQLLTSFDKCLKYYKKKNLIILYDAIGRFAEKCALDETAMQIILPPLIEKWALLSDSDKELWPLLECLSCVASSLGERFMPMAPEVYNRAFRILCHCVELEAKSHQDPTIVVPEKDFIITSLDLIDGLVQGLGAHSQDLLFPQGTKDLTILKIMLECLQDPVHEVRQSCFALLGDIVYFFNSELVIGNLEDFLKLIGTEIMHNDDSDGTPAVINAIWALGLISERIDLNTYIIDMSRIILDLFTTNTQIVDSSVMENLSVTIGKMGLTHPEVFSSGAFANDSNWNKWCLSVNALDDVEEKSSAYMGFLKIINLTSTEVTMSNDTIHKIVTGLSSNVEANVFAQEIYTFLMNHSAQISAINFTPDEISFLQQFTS
As to the kind of experiment: pull-down.

B1: His6-scAcl4•scRpL4 (complex)
chain 1: MSELEATIRQAKEALAENNAKKALKILKPFKSSLKKENANNVILNEVFADAYLDNGQVEKAYPILARACELDPEGQVGGPDKFFTMGQIMGGQDGVSIITRGIMNISNTGGEMLTNVQVEKIVGGLLSVIEIWMTDLCMEPNAEEQCEELIQKAMELTEGKSPETWSTLGSIKISQQKFGEAYEAFSQAWNFFELKKQEIGSGINENGDTTQKAGLQSEYVDLLQPLLSLTKMCLEVGAYEVALKVIAAVRDIDEDNIEGYYLEGFTYYLMSKLEIFKLNNPEVSLRPENIYEFNQLIQEVPLDLSHEPISQLIYDSRLALSFALQAGVNADSKDEIVQELLGGANALLQEIGGPLDPSELTQIKKGDLVNENEDLEELDIEEEYSD
chain 2: not shown
As to B1, the binding result is on record as “binds”.

B2: scRpL4 (natural protein)
chain: not shown
On to B2, for which the binding result is reported as “binds”.
